B1: Coiled-coil domain-containing protein 185 (Homo sapiens), Q8N715 (parent)
chain: MAGFSHFSQPPYRDLWEPPRPGGERESTQRLGGQRSGADSTACSRAGTPGAESEAGACWLHPHCSFTPRPRRRGCSDSLRGSRSLSDVARRPLERSRKHRPRSRRLEDAWGETGTKPRPAWQPQTQLPPQRPQPCPHYPLAQGDSPPPCPGGAGTPLSGTFRVEKAQGGDQWAVPLGRHLGRWSPSSVPSERSSVPSQKFKRHSACVCAQKRDSSDQVESLASRDSQPLASSKEMRSPHTQVLKSKLEEVVVSSQDQQIVALVLTRLKKAQRIRELQQQAAKAWEELKRSDQKVQMTLERERRLLLRQSQEQWQEKEQRKTLQSPEQRGLRRDSQRKNVPPGESRWKEQPEDQESPRQEKLEKARAQAEHRKQCQVRRLREQEKMLRNLREQHSLQLQRRLVEACRKRHLHAVEGQKKVQDTNLSSLINYQARKVLMDCQAKAEELLRQLSLEQSFQRSQEIHQGLRKERQRELREKAQKEEEQLQQARWRAGESEEQRKMRKRILVELADEKIRQARSHVHKTTRDKVQHLRELNHLREKNHHILKLKAEKEEKCHIEGIKEAIKKKEQRVQHISQGKDPNFQEFQKLPQASRREERAPPNSSLDQMVLEAQLRACQQNRGY
B2: E3 ubiquitin-protein ligase Midline-1 (Homo sapiens), O15344 (parent)
chain: METLESELTCPICLELFEDPLLLPCAHSLCFNCAHRILVSHCATNESVESITAFQCPTCRHVITLSQRGLDGLKRNVTLQNIIDRFQKASVSGPNSPSETRRERAFDANTMTSAEKVLCQFCDQDPAQDAVKTCVTCEVSYCDECLKATHPNKKPFTGHRLIEPIPDSHIRGLMCLEHEDEKVNMYCVTDDQLICALCKLVGRHRDHQVAALSERYDKLKQNLESNLTNLIKRNTELETLLAKLIQTCQHVEVNASRQEAKLTEECDLLIEIIQQRRQIIGTKIKEGKVMRLRKLAQQIANCKQCIERSASLISQAEHSLKENDHARFLQTAKNITERVSMATASSQVLIPEINLNDTFDTFALDFSREKKLLECLDYLTAPNPPTIREELCTASYDTITVHWTSDDEFSVVSYELQYTIFTGQANVVSLCNSADSWMIVPNIKQNHYTVHGLQSGTKYIFMVKAINQAGSRSSEPGKLKTNSQPFKLDPKSAHRKLKVSHDNLTVERDESSSKKSHTPERFTSQGSYGVAGNVFIDSGRHYWEVVISGSTWYAIGLAYKSAPKHEWIGKNSASWALCRCNNNWVVRHNSKEIPIEPAPHLRRVGILLDYDNGSIAFYDALNSIHLYTFDVAFAQPVCPTFTVWNKCLTIITGLPIPDHLDCTEQLP
B3: Elongin-A2 (Homo sapiens), Q8IYF1 (parent)
chain: MAAGSTTLHAVEKLQVRLATKTEPKKLEKYLQKLSALPMTADILAETGIRKTVKRLRKHQHVGDFARDLAARWKKLVLVDRNTRPGPQDPEESASRQRFGEALQDQEKAWGFPENATAPRSPSHSPEHRRTARRTPPGQQRPHPRSHSREPRAERKCPRIAPADSGRYRASPTRTAPLRMPEGPEPAAPGKQPGRGHTHAAQGGPLLCPGCQGQPQGKAVVSHSKGHKSSRQEKRPLCAQGDWHSPTLIREKSCGACLREETPRMPSWASARDRQPSDFKTDKEGGQAGSGQRVPALEEAPDSHQKRPQHSHSNKKRPSLDGRDPGNGTHGLSPEEKEQLSNDRETQEGKPPTAHLDRTSVSSLSEVEEVDMAEEFEQPTLSCEKYLTYDQLRKQKKKTGKSATTALGDKQRKANESKGTRESWDSAKKLPPVQESQSERLQAAGADSAGPKTVPSHVFSELWDLSEAWMQANYDPLSDSDSMTSQAKPEALSSPKFREEAAFPGRRVNAKMPVYSGSRPACQLQVPTLRQQCAQVLRNNPDALSDVGEVPYWVLEPVLEGWRPDQLYRRKKDNHALVRETDELRRNHCFQDFKEEKPQENKTWREQYLRLPDAPEQRLRVMTTNIRSARGNNPNGREAKMICFKSVAKTPYDTSRRQEKSAGDADPENGEIKPASKPAGSSHTPSSQSSSGGGRDSSSSILRWLPEKRANPCLSSSNEHAAPAAKTRKQAAKKVAPLMAKAIRDYKRRFSRR
partner: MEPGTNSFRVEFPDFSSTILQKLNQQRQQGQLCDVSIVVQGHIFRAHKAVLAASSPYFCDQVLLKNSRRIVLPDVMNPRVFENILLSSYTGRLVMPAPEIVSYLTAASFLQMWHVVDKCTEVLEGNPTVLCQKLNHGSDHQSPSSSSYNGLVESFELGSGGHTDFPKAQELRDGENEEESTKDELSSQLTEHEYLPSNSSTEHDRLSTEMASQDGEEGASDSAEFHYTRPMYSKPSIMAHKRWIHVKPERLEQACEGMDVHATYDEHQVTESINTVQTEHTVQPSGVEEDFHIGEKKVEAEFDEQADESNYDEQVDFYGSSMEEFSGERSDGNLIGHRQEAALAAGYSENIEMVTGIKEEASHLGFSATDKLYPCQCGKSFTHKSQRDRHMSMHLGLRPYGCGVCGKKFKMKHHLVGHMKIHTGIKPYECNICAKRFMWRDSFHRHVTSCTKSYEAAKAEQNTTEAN
B4: Ribosome quality control complex subunit TCF25 (Homo sapiens), Q9BQ70 (parent)
chain: MSRRALRRLRGEQRGQEPLGPGALHFDLRDDDDAEEEGPKRELGVRRPGGAGKEGVRVNNRFELINIDDLEDDPVVNGERSGCALTDAVAPGNKGRGQRGNTESKTDGDDTETVPSEQSHASGKLRKKKKKQKNKKSSTGEASENGLEDIDRILERIEDSTGLNRPGPAPLSSRKHVLYVEHRHLNPDTELKRYFGARAILGEQRPRQRQRVYPKCTWLTTPKSTWPRYSKPGLSMRLLESKKGLSFFAFEHSEEYQQAQHKFLVAVESMEPNNIVVLLQTSPYHVDSLLQLSDACRFQEDQEMARDLVERALYSMECAFHPLFSLTSGACRLDYRRPENRSFYLALYKQMSFLEKRGCPRTALEYCKLILSLEPDEDPLCMLLLIDHLALRARNYEYLIRLFQEWEAHRNLSQLPNFAFSVPLAYFLLSQQTDLPECEQSSARQKASLLIQQALTMFPGVLLPLLESCSVRPDASVSSHRFFGPNAEISQPPALSQLVNLYLGRSHFLWKEPATMSWLEENVHEVLQAVDAGDPAVEACENRRKVLYQRAPRNIHRHVILSEIKEAVAALPPDVTTQSVMGFDPLPPSDTIYSYVRPERLSPISHGNTIALFFRSLLPNYTMEGERPEEGVAGGLNRNQGLNRLMLAVRDMMANFHLNDLEAPHEDDAEGEGEWD
B5: Protein FAM13C (Homo sapiens), Q8NE31 (parent)
chain: MFSCFCFSLQDNSFSSTTVTECDEDPVSLHEDQTDCSSLRDENNKENYPDAGALVEEHAPPSWEPQQQNVEATVLVDSVLRPSMGNFKSRKPKSIFKAESGRSHGESQETEHVVSSQSECQVRAGTPAHESPQNNAFKCQETVRLQPRIDQRTAISPKDAFETRQDLNEEEAAQVHGVKDPAPASTQSVLADGTDSADPSPVHKDGQNEADSAPEDLHSVGTSRLLYHITDGDNPLLSPRCSIFSQSQRFNLDPESAPSPPSTQQFMMPRSSSRCSCGDGKEPQTITQLTKHIQSLKRKIRKFEEKFEQEKKYRPSHGDKTSNPEVLKWMNDLAKGRKQLKELKLKLSEEQGSAPKGPPRNLLCEQPTVPRENGKPEAAGPEPSSSGEETPDAALTCLKERREQLPPQEDSKVTKQDKNLIKPLYDRYRIIKQILSTPSLIPTIQEEEDSDEDRPQGSQQPSLADPASHLPVGDHLTYSNETEPVRALLPDEKKEVKPPALSMSNLHEATMPVLLDHLRETRADKKRLRKALREFEEQFFKQTGRSPQKEDRIPMADEYYEYKHIKAKLRLLEVLISKQDVAKTI
B6: Keratin, type I cytoskeletal 20 (Homo sapiens), P35900 (parent)
chain: MDFSRRSFHRSLSSSLQAPVVSTVGMQRLGTTPSVYGGAGGRGIRISNSRHTVNYGSDLTGGGDLFVGNEKMAMQNLNDRLASYLEKVRTLEQSNSKLEVQIKQWYETNAPRAGRDYSAYYRQIEELRSQIKDAQLQNARCVLQIDNAKLAAEDFRLKYETERGIRLTVEADLQGLNKVFDDLTLHKTDLEIQIEELNKDLALLKKEHQEEVDGLHKHLGNTVNVEVDAAPGLNLGVIMNEMRQKYEVMAQKNLQEAKEQFERQTAVLQQQVTVNTEELKGTEVQLTELRRTSQSLEIELQSHLSMKESLEHTLEETKARYSSQLANLQSLLSSLEAQLMQIRSNMERQNNEYHILLDIKTRLEQEIATYRRLLEGEDVKTTEYQLSTLEERDIKKTRKIKTVVQEVVDGKVVSSEVKEVEENI
partner: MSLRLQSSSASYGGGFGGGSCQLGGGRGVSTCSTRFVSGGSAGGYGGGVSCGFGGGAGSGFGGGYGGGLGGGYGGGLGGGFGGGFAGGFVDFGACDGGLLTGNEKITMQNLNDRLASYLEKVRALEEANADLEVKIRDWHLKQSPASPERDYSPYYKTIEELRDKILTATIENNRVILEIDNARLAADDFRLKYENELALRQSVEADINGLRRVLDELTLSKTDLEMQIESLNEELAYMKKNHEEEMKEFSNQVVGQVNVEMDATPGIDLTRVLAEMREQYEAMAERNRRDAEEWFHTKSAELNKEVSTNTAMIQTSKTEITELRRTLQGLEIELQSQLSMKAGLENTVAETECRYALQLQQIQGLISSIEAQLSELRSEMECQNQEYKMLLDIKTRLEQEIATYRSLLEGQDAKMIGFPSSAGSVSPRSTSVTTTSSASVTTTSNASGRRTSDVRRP

Variants of: B1
Conditions: with KRT15, P19012
Chain of KRT15, P19012 (P19012 whole entry): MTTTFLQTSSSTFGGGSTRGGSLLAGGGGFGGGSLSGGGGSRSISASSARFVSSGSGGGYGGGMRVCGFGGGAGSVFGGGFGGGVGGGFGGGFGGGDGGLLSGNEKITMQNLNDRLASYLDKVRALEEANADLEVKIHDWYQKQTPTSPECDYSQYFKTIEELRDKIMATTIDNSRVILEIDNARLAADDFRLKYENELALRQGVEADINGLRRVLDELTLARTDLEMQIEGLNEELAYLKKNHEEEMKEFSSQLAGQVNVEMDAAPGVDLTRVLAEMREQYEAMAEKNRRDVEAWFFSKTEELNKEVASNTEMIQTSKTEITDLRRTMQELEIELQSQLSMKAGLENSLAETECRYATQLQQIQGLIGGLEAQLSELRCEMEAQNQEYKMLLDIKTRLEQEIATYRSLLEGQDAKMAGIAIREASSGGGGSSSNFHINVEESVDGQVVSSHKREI

effect of a mutation on the interaction | Variant
with no effect | S603G

Variants of: B2
Conditions: with meox1_human MEOX1, P50221
Chain of meox1_human MEOX1, P50221 (P50221 whole entry): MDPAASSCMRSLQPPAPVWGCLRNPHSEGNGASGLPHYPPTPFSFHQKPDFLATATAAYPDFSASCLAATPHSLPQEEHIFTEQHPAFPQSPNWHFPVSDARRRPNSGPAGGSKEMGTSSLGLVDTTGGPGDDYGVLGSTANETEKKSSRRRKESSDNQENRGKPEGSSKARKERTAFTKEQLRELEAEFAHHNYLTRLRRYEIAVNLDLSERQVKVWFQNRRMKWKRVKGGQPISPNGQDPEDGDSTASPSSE

effect of a mutation on the interaction | Variant
with no effect | D84N

Variants of: B2
Conditions: with echp_human EHHADH

effect of a mutation on the interaction | Variant
with no effect | D84N

Variants of: B2
Conditions: with ub2d3_human UBE2D3, P61077
Chain of ub2d3_human UBE2D3, P61077 (P61077 whole entry): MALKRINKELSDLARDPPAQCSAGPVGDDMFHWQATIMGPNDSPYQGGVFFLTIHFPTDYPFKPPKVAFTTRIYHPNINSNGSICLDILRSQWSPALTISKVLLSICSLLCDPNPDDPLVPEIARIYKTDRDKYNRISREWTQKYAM

effect of a mutation on the interaction | Variant
with no effect | D84N

Variants of: B2
Conditions: with ub2e2_human UBE2E2, Q96LR5
Chain of ub2e2_human UBE2E2, Q96LR5 (Q96LR5 whole entry): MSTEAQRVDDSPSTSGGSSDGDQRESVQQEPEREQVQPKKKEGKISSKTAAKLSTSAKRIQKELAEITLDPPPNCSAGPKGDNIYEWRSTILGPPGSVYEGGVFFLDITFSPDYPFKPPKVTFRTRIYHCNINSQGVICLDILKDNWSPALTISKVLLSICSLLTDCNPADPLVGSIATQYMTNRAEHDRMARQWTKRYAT

effect of a mutation on the interaction | Variant
with no effect | D84N

Variants of: B3
Conditions: with zbt43_human ZBTB43, O43298

effect of a mutation on the interaction | Variant
with no effect | D302H
with no effect | A446T
with no effect | G505R
disrupting interaction strength | C254F

Variants of: B4
Conditions: with sat1_human SAT1, P21673
Chain of sat1_human SAT1, P21673 (P21673 whole entry): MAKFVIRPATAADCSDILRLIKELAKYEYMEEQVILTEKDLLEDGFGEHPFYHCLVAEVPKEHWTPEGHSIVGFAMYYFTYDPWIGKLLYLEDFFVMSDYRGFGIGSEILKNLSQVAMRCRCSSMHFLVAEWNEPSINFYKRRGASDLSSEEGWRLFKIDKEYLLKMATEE

effect of a mutation on the interaction | Variant
with no effect | V526A

Variants of: B5
Conditions: with kif2a_human KIF2A

effect of a mutation on the interaction | Variant
with no effect | K97R

Variants of: B5
Conditions: with tfp11_human TFIP11, Q9UBB9
Chain of tfp11_human TFIP11, Q9UBB9 (Q9UBB9 whole entry): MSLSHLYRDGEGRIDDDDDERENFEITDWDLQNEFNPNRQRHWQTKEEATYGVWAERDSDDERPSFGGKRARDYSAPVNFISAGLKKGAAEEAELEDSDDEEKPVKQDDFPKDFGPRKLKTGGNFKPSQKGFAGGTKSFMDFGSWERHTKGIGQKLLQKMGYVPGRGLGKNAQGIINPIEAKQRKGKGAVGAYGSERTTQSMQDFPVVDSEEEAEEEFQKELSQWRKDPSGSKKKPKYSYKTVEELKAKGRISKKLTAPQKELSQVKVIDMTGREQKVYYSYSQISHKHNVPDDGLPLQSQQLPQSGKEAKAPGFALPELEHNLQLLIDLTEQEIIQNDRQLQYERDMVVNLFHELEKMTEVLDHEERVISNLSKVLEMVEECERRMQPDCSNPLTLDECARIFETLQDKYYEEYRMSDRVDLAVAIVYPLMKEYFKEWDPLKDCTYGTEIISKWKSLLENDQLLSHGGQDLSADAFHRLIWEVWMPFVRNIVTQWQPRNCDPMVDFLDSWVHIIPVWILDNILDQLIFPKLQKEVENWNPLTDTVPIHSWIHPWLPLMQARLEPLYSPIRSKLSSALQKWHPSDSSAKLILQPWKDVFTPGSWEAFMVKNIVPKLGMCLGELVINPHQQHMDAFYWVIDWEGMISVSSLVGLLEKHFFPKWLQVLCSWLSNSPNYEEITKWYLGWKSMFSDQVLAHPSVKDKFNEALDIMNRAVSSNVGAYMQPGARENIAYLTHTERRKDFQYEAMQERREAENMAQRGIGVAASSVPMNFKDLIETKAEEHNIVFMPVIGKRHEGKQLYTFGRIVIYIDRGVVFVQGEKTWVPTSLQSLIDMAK

effect of a mutation on the interaction | Variant
with no effect | P147S

Variants of: B6
Conditions: with KRT13, P13646

effect of a mutation on the interaction | Variant
with no effect | MDFSRRSFHRSLSSSLQAPVVSTVGMQRLGTTPSVYGGAGGRGIRISNSRHTVNYGSDLTGGGDLFVGNEKMAMQNLNDRLASYLEKVRTLEQSNSKLEVQIKQWYETNAPRAGRDYSAYYRQIEELRNQIKDAQLQNARCVLQIDNAKLAAEDFRLKYETERGIRLTVEADLQGLNKVFDDLTLHKTDLEIQIEELNKDLALLKKEHQEEVDGLHKHLGNTVNVEVDAAPGLNLGVIMNEMRQKYEVMAQKNLQEAKEQFERQTAVLQQQVTVNTEELKGTEVQLTELRRTSQSLEIELQSHLSMKESLEHTLEETKARYSSQLANLQSLLSSLEAQLMQIRSNMERQNNEYHILLDIKTRLEQEIATYRRLLEGEDVKTTEYQLSTLEERDIKKTRKIKTVVQEVVDGKVVSSEVKEVEENI [S129N]
with no effect | MDFSRRSFHRSLSSSLQAPVVSTVGMQRLGTTPSVYGGAGGRGIRISNSRHTVNYGSDLTGGGDLFVGNEKMAMQNLNDRLASYLEKVRTLEQSNSKLEVQIKQWYETNAPRAGRDYSAYYRQIEELRSQIKDAQLQNARCVLQIDNAKLAAEDFRLKYETERGIRLTVEADLQGLNKVFDDLTLHKTDLEIQIEELNKDLALLKKEHQEEVDGLHKHLGNTVNVEVDAAPGLNLGVIMNEMRQKYEVMAQKNLQEAKEQFERQTAVLQQQVTVNTEELKGTEVQLTELRRTSQSLEIELQSHLSMKEYLEHTLEETKARYSSQLANLQSLLSSLEAQLMQIRSNMERQNNEYHILLDIKTRLEQEIATYRRLLEGEDVKTTEYQLSTLEERDIKKTRKIKTVVQEVVDGKVVSSEVKEVEENI [S309Y]
